# Literature values, collected in article PMC10823516.
# Target: HER2 ECD (Homo sapiens) (UniProt P04626)
substance,measurement,value
Trastuzumab Fab Fab,Kd,2 nM
